What all share (assay): membrane filtration equilibrium binding (Scatchard plot); 12.5 µM wild-type or mutant small heat shock protein incubated 1 hr at 60°C with 2–18 µM γ-crystallin in 50 mM phosphate buffer, 100 mM NaCl, pH 7.2; unbound substrate separated through a 100-kDa cut off Microcon filter; n per subunit of chaperone
Assay [1] has as its target wild-type human Hsp27 (human) (UniProt P04792).
The target in assay [2] is wild-type human αA-crystallin (human) (UniProt P02489).
Assay [3] deals with Hsp27 R12A mutant (human) (UniProt P04792).
Hsp27 R12A mutant (human), sequence (P04792 whole entry R12A): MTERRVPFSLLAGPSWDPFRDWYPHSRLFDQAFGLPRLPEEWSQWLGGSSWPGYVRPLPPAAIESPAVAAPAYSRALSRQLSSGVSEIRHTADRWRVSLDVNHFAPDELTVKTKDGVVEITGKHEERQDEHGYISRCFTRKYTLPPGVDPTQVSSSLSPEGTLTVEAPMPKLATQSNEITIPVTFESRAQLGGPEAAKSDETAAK
Assay [4] addresses αB-crystallin R12A mutant (human) (UniProt P02511).
In assay [5] the target is wild-type human αB-crystallin (human) (UniProt P02511).
wild-type human αB-crystallin (human), sequence (P02511 whole entry): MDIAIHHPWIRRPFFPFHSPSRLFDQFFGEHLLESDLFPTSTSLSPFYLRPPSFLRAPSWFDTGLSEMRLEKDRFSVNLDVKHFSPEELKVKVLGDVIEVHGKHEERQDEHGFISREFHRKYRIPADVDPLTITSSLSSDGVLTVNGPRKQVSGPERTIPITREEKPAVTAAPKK

bovine γ-crystallin, sequence (P02526 whole entry): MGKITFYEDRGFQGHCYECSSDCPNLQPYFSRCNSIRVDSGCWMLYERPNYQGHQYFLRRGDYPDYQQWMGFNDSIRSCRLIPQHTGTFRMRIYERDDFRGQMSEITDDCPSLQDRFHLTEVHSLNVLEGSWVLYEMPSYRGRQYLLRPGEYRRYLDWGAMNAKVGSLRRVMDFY
wild-type human Hsp27 (human), sequence (P04792 whole entry): as the sequence (P04792 whole entry R12A) above, with A12R counted along it
αB-crystallin R12A mutant (human), sequence (P02511 whole entry R12A): as the sequence (P02511 whole entry) above, with R12A counted along it
wild-type human αA-crystallin (human), sequence (P02489 whole entry): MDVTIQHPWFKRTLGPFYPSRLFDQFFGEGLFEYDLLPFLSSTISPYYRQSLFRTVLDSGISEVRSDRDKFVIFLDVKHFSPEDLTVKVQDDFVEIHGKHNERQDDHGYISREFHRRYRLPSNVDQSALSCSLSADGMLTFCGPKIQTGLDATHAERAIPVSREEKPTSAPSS

Regarding “bovine γ-crystallin (from UniProt P02526 1-175) (natural protein)”, the equilibrium dissociation constant (Kd) – broadly, the free concentration of one partner at which half of the binding sites on the other are occupied at equilibrium, for simple one-to-one binding – came to 5.91 µM in assay [1], 5.79 µM in assay [3], 3.24 µM in assay [4] and 2.84 µM in assay [5]. The stoichiometry N – broadly, a count of units in the complex or per binding partner – in assay [1] was determined as 2.9; in assay [2], 3.61; in assay [3], 2.87; in assay [4] it was 1.68; in assay [5], 2.34.

(Values after article PMC3260246.)
